Data as given in patent US20230374148A1, “BINDING MOLECULES THAT MULTIMERISE CD45” (UCB BIOPHARMA SRL, priority 2020, published 2023).

How the values were obtained:
Assay type in all cases: cell-based
Human whole blood = assay: T cell count in whole blood at 24 hrs; settings: Fab-KD-Fab or BYbe 100 nM, Campath 10 μg/ml, in comparison with PBS- and NegCtrl BYbe-treated wells
Method: Human whole blood (Lithium heparin tubes) was taken from one donor (HTA #031219-06) at UCB Pharma Slough, UK according to approved ethical sample collection protocol.
In a Greiner 96-well non-binding microplate, Fab-X and Fab-Y combination 6294-X/4133-Y was added to PBS to give a Fab-KD-Fab concentration of 2000 nM. Similarly, stocks of 4133-6294 BYbe and NegCtrl BYbe were prepared in PBS at 2000 nM. The microplate was incubated for 1 hr at 37° C., 5% CO2. Following the incubation, Fab-KD-Fab and BYbe reagents were then serially diluted in PBS 1 in 5, seven times to produce to form an 8-point dose curve.
12.5 μl of Fab-KD-Fab or BYbe dilution was transferred into Corning Costar 96-well, cell culture treated, U-shaped-bottom microplate (cat no. 07-200-95) and 237.5 μl of whole blood added to each well. Final well concentrations of Fab-KD-Fab or BYbes were 100-0.00128 nM. Campath (clinical grade, diluted from 30 mg/ml stock to 1 mg/ml in PBS, lot number F1002H29) was used as a positive control at a final concentration of 10 μg/ml. Plates were sealed with a gas permeable adhesive seal and plate lids were replaced. […]
Following the incubation with the antibody cocktail, cells were washed twice as outlined above and buffer aspirated to leave the cells in 20 μl residual buffer. […] Cells were analysed live using the Intellicyt iQue Screener PLUS. […]

THP-1 = assay: Apoptosis of cell lines: THP-1; settings: THP-1, 21 hrs
Excerpt: (§1) The following cell lines representing various leukaemia's and lymphoma's, as classified by ATCC (www.atcc.org/), were used: Jurkat—acute T-cell leukaemia; CCRF-SB—B-cell acute lymphoblastic leukaemia; MC116—B-cell undifferentiated lymphoma; Raji, Ramos—Burkitt lymphoma (rare form of B-cell non-Hodgkin lymphoma); SU-DHL-4, SU-DHL-5, SU-DHL-8, NU-DUL-1, OCI-Ly3—Diffuse large B-cell lymphoma; THP-1—acute monocytic leukaemia; and Dakiki—B cell nasopharyngeal carcinoma.
(§2) Prior to an assay being performed, 1 vial of each of the above cell lines was thawed in a 37° C. water bath and then added to 20 ml complete media (RPMI 1640+2 mM GlutaMAX+1% Pen/Strep, all previous supplied by Invitrogen, +10% Fetal Bovine Serum (FBS), Sigma Aldrich). Cells were spun (500 g, 5 min, at RT) and re-suspended in 20 ml complete media to wash and spun again. Cells were resuspended in 10 ml complete media and then counted using a ChemoMetec NucleoCounter NC-3000. 6×10^6 cells of each cell line were spun (500 g, 5 min, at RT) and re-suspended in 4.8 ml complete media. 1×10^5 cells in 80 μl were then added to each well of a Corning Costar 96-well, cell culture treated, U-shaped-bottom microplate (cat no. 07-200-95). The plate was rested in a 37° C., 5% CO2 incubator for 2 hrs
(§3) Stocks of 4133-6294 BYbe and NegCtrl BYbe at 2500 nM in complete media were prepared. In a Greiner 96-well non-binding microplate, both reagents were serially diluted in complete media 1 in 5, seven times to produce to form an 8-point dose curve. […] (final well concentrations 500-0.0064 nM) was added to the cells. Each concentration was produced in triplicate. Camptothecin (cat no. C9911-100MG, Sigma Aldrich) and Staurosporine (cat no. 56942-200UL, Sigma Aldrich) were added as positive controls of apoptosis. Both were diluted in complete media and added to the well to produce a final concentration of 5 μM. Additional positive controls included anti-thymocyte globulin (ATG, indicated by FDA for use in conditioning regimens), Rituximab (anti-CD20, indicated by FDA for Non-Hodgkin Lymphoma and Chronic Lymphocytic Leukaemia) and Campath (anti-CD52, indicated by FDA for B-cell Chronic Lymphocytic Leukaemia). Anti-thymocyte globulin, Rituximab and Campath were added to the wells to produce final concentrations of 200 μg/ml, 500 nM and 200 μg/ml, respectively. […]
(§4) Following the incubation, the plates were spun at 500 g, 5 min, RT, the buffer was aspirated with a BioTek ELx405 microplate washer, and the cells were re-suspended in FACS buffer (PBS+1% bovine serum albumin (BSA)+0.1% NaN3+2 mM EDTA, Sigma Aldrich) to wash and then re-spun and buffer was aspirated to leave the cells in 20 μl residual media. […] Cells were analysed using the Bio-Rad ZE5 Cell Analyzer. […]

Raji = assay: Apoptosis of cell lines: Raji; settings: 21 hrs
Excerpt: as §1, §2, §3, §4

Jurkat = assay: Apoptosis of cell lines: Jurkat; settings: 21 hrs
Excerpt: as §1, §2, §3, §4

Molecule	reduction in T cell numbers (Human whole blood)	Campath mean (%) cell reduction (THP-1; 200 μg/ml) [%]	Campath mean (%) cell reduction (Raji; 200 μg/ml) [%]	Campath mean (%) cell reduction (Jurkat; 200 μg/ml) [%]	Bottom (%) level of % cell reduction (THP-1) [%]	Top (%) level of % cell reduction (THP-1) [%]	Bottom (%) level of % cell reduction (Raji) [%]	Top (%) level of % cell reduction (Raji) [%]	Bottom (%) level of % cell reduction (Jurkat) [%]	Top (%) level of % cell reduction (Jurkat) [%]
Campath: anti-CD52, clinical grade, indicated by FDA for B-cell Chronic Lymphocytic Leukaemia; positive control [reference compound]	roughly 8 fold	15.40	36.00	5.64						
4133-6294 BYbe: anti-CD45 BYbe (Fab-scFv): 4133 Fab HC-G4S linker-6294 scFv heavy chain paired with 4133 light chain (antibody) heavy: QEQLVESGGGLVQPEGSLTLTCTASGFSFSGNYYMCWVRQAPGKGLEWIGCLYTGSSGSTYYASWAKGRFTISKTSSTTVTLQMTSLTAADTATYFCARDLGYEIDGYGGLWGQGTLVTVSSGQPKAPSVFPLAPCCGDTPSSTVTLGCLVKGYLPEPVTVTWNSGTLTNGVRTFPSVRQSSGLYSLSSVVSVTSSSQPVTCNVAHPATNTKVDKTVAPSTCSKPGGGGSGGGGSEVQLVESGAELARPGASVKMSCKASGYTFTSYTMHWVKQRPGQCLEWIGYINPSSGYTEYNQKFKDKTTLTADKSSSTAYLQLSSLTSEDSAVYYCARVGDGFYPSWLAYWGQGTLVTVSSGGGGSGGGGSGGGGSGGGGSDIQMTQSPKFLLVSAGDRVTITCKASQSVRNDVAWYQQKPGQSPKLLIFYASKRYTGVPDRFTGSGYGTDFTFTISTVQAEDLAVYFCQQDYSSPTTFGCGTKLEIK light: AQVLTQTPSPVSAVVGGTVSISCQASQSVYNNNNLSWYQQKPGQPPKLLIYDASKLASGVPSRFKGSGSGTQFTLTISGVQCDDAATYYCLGGYYSSGWYFAFGGGTKVVVKRTPVAPTVLIFPPAADQVATGTVTIVCVANKYFPDVTVTWEVDGTTQTTGIENSKTPQNSADCTYNLSSTLTLTSTQYNSHKEYTCKVTQGTTSVVQSFNRGDC	5 fold				8.14	60.72	13.56	74.02	23.49	99.27
